# Test results as given in FireProtDB (doi:10.1093/oxfordjournals.jbchem.a021544).
# B1: Lysozyme C, P61626 (parent)
# chain: MKALIVLGLVLLSVTVQGKVFERCELARTLKRLGMDGYRGISLANWMCLAKWESGYNTRATNYNAGDRSTDYGIFQINSRYWCNDGKTPGAVNACHLSCSALLQDNIADAVACAKRVVRDPQGIRAWVAWRNRCQNRDVRQYVQGCGV
# Variants of: B1
# Conditions: Homo sapiens; pH 2.67; Thermal; DSC; glycine 0.05 M; reversible: yes; structure 1LZ1; whole UniProt chain shown
Variant,Tm,heat capacity change of unfolding,unfolding enthalpy (calorimetric),unfolding enthalpy (van 't Hoff)
I74T,51.8 °C,1 kcal/mol/K,87.8 kcal/mol,90.9 kcal/mol

# Same assay, conditions: Homo sapiens; pH 2.7; 64.9 °C; Thermal; DSC; glycine 0.05 M; reversible: yes; structure 1LZ1; whole UniProt chain shown
Variant,ddG of mutation (higher = less stable),heat capacity change of unfolding
I74T,3.64 kcal/mol,1.24 kcal/mol/K

# Same assay, conditions: Homo sapiens; pH 2.7; Thermal; DSC; glycine 0.05 M; reversible: yes; structure 1LZ1; whole UniProt chain shown
Variant,Tm,"change of melting temperature, mutant - wild type (higher = more stable)",heat capacity change of unfolding,unfolding enthalpy (calorimetric),unfolding enthalpy (van 't Hoff)
I74T,52.4 °C,-12.5 °C,1.24 kcal/mol/K,102 kcal/mol,108 kcal/mol

# Same assay, conditions: Homo sapiens; pH 2.98; Thermal; DSC; glycine 0.05 M; reversible: yes; structure 1LZ1; whole UniProt chain shown
Variant,Tm,heat capacity change of unfolding,unfolding enthalpy (calorimetric),unfolding enthalpy (van 't Hoff)
I74T,58 °C,1.2 kcal/mol/K,93.3 kcal/mol,102 kcal/mol

# Same assay, conditions: Homo sapiens; pH 3.11; Thermal; DSC; glycine 0.05 M; reversible: yes; structure 1LZ1; whole UniProt chain shown
Variant,Tm,heat capacity change of unfolding,unfolding enthalpy (calorimetric),unfolding enthalpy (van 't Hoff)
I74T,60.5 °C,1.15 kcal/mol/K,97.6 kcal/mol,103 kcal/mol
